experiment: soluble on expression in E. coli; label from the status in PepcDB or PDB records

Soluble on expression in E. coli, not soluble:
MGSDKIHHHHHHLIPFFLDLVSRTDEARRAFELHPVVTHAAANGMTLQRYRRLLLELYHVVWHFNTVSAAGASRLQDTHKQVRYFLYEHMHEESGHEEWVLADLEQMGVTRDIALNHRPSHYTLALVGYYYYAADRKHPASVLGMLYALEVIASVYGGTLTSAVKESLLLDDERGVSFISSHATLDAEHMADLKTVLDTIEDDEAKDAIEEAVLLTFNHLTHIMVEAHLEEGDISGAPAVNAEHFAISAEKAAA, MGSDKIHHHHHHLIYIYYPELRLFNGDEITQKFVKGEVVEAHEVLRLKHSIATYRSRLCDISWFMRCLNEPIARQANQEDSCTGRFWEGRFKSQALLDEAAVLACMAYVDLNPIRAKMASTPEQSDHTSIQLRIRAALKGEQPNNLLPFIGNERQFQPKGITFALKDYLELVDDTGRIIRNDKRGSVSANSAKLLTRLNISQENWLKLTTEFGKLFHGPVGTLQELTSYCEHLEKRRRHFASCCQHLKAG, MGSDKIHHHHHHLKILKFQIKDFRNLKKIEYQPSPGLNIFYGENAQGKTNILEALYYLATGNSFRSNKEKTLISYESSSLQVQARYNHQERIIDSSITYGLDGKVFRINKKRASYNHTDRLRIILFSPDDLYLVKGAPYKRRFFLDFLLGQISNEYLFKLDNYRKILKKRNLLLKKEETNSRSFAIINDIFMDLAAQLLISRLNLINVLDEAIQEIYPQINNDGGQLKIRYALSFPVDSGKINLDILKDSLKKQVESETEKEKKRKTTLLGPHLDDMHIYLNEQMARLFASQGQQRNIVICLKLAEIMTFRKIKGFFPIFLLDEVLAELDDSRSNKLLKYLAQSPFQSFLTSVKLEKFEVMDASIFLVKDGCLLGKE, MGSDKIHHHHHHLSADHNAFRRALTERWGKAFGEPVIHEDPRTRSLCFGAPGVQSSMRTSDPLELDLPYTRAMMSFQLFCPDPKDILIVGLGGGSLSKYCFHKFPSARVTTVEIDERVIALRDAFFIPPESERFRIVHADAAAYLPDKVGLADVILLDGFDASGLPASLSSQYFYDCCHAALRDEGVLVANLLSSDPRLGAHLDRIHRACHGKLFRTMARREGNTIAIGIRQATWPGWPDLYARAEAITASTGLDLCRYVKKMERHHRVEPVSEHPSSDTLAVEQNR, MGSDKIHHHHHHLTDMLAPRVVARLRGVTKSFDGTTVVRNVDLDFRSGEVHVLAGENGAGKSTLTKLLAGIHQPDHGTVEINGQMGPFDVKSSRTAGVTLVHQELLIAPNLTVADNLAMGQENRNRFRGLDRTATLENARAQLAHIGATFPVTMRAEELTVADHQQIEIARALAQKPKILILDEPTSALSSAETERLLRIVDELRRNGTSVIYITHRMEEIEALADIVSIMRDGSLVETMPKAEATPDAIVLRMVGRKIDSLFTAERPEPGRVVLRVEQLTNGKDIGPIDLDVRAGEVVGIGGLIGSGRSEFVRLIFGADRASSGTVSVDGSPVNVTGPGSAVRAGIALLPESRKTQGLVLDQSIAANIVLASLGHISSAGVVTPAAVKRVASKAQKRLGIKSASLGQEVTTLSGGNQQKVLFAKWLETKPKVLILDEPTRGVDVGAKAEIYQIINECAHAGVAVLVISSELPELIGLSSRVHVMREGRLVAEIDAQSLTEEAVMNHAFGIAQATQA, MGSDKIHHHHHHLTLSIEHLTGGYTQTPVIKDINFEVKNGELLGLIGLNGAGKSTTINHVIGLMRPMKGKIILDEIDLEQNPTQYKTKLAYIPELPILYDELTLKEHIELTIKAYEMNSEKAWQQAHKLLKTFRLENKLDWFPANFSKGMRQKVMIVCAFITDAELFVVDEPFLGLDPLAIDDLLKVINEKKQQGASILMSTHVLDTAEKYCDRFALLNEGELKAVGTLADFQKQFNLPNSSLNDIYLTIAKGERDE, MGSDKIHHHHHHMAAGSTLWTRIPAMQQQNHPPYTLAIAQGESISLDPSHFTPEHWQALAAVTGTSKGRYTTWFVRHPEANQDWVLRHYWRGGLMEKFSKDRYLYTGMANTRAIAELALLEKLHAEGFPVPRPVGARVRRYALWYSADILIERMPGCRDLLAWLEQGPLDEAEWKALGVCIARFHHRGVYHADLNAKNILKGPQGFALIDFDRGEIRNPANSWQQANLSRLRRSFDKEKGKLPSLAFDESCWQWLLEGYAAA, MGSDKIHHHHHHMAAINAAVLQALRTMVRSEFQNALTKTESLYLKIASVVPSNTKSNTYGWLGSMPTMREWIGARVINSIKEHGYSITNRTFETTIGICRDDVEDEVIGTYKPMVQALAQEGEEFPDDLVFELLADGFSTLCYDGQNFFDTDHPVNEKHDGTGDNVSVANMALDAAYTGEPWFLLDTTRPLKPVIFQERRKLDLNTLFNPTDPAVWTNNEFQFGTDMRCEAGFGFWQMAFANKRALNADNLWDTIEKMKAFKRDGGKKLKIRPSLLVVPSSLEQAATKLLTRELIDENGTTVENELKGKVELLVVPQL, MGSDKIHHHHHHMAAPEKTAGSKGEATQMRDAPALVGSDRQKILRAGFIPLVDASVLIAAAEFGFADREGLILDLVKDVSWANVRDRLAFRQFDIAHMLSPMPVASMLGLGSNPSPTITPFSLGRGGNAITLSTRLFARMKALTGLSETAGALENARALKLVLDDMRARGEAPPTLGMTYPFSSHNYEFRYWLAAGGIHPDHDVKLVVVPPPMTSDALAAGAIDGFCVGAPWNIVAAERGVGRIVAAKQDLWPSAPEKVIGMRPEWAESQQETVGRLLTALDAAASWCDLADNHDALSGALADPRYIGAPQSIIRRVLAGEFSIDSQGNRRVIEKYFTFHGDHANYPRQSQSLWIYSQMIRWGQAELSETGVNAALSAYRPDIYRAALGDGKAPGDADIRIEGQDEGDRFVDGFVFDPADIAGYVNSFAVRTSVPVSAPSGEA, MGSDKIHHHHHHMACGEFSGDDAAMKQTSFATAEYAGKKRQTRRERFLAEMNVVVPWARLEALIEPHYPKSGKVGRPPIGVPRMLRMYFLQQWYTLADEALEDALYDSQAMREFIGIDLGRENVPDATTLLKFRRLLEQHDLTSAILAEVNAHLTERGLLMRQGTVVDATIIAAPSSTKNEDGKRDPEMHQTKKGNQWHFGMKMHSGVDAESGLIHSVVCTAANEADVAHAHELLHGQESQVHGDSGYTGIQRRDEITTAQEEGRLRQDMDWRIAMKRGQLKAMPEGPAKAMHEWFERRKAQVRAIVEHPFHVIKNLFGYRKVSYRGISKNEARAKAHAALANLYIARRRLLAQGLSASAA, MGSDKIHHHHHHMADGAEFKVYTQRFIMEKIAYYLGQYHSLEENNAFWGEGFTEWHNVAKARPLFPSHRQPVLPGKLGFYDLRNNDTIEEQVALADSFGVTAFCHWHYWFGGKRVLYRPFDSMLKIQNSPVKVMLGWANESWTGIWHGLSDQVIFEQPYNKIELNEHAKLLADYFRHENYLKVNGKAAFLIYKPRKIPESKSYLQLLRQKVYENCGLDMYIIGTWGPGRLEVIHSADELGLDALVANNVGATFKSELSRKLYNGFWTAAKSLGLGPELRNYASTVKTLEYAHQNISGTVHSTIVTGWDNSPRSNRRALVLTNFNENSFKYAIDIAISNEKNNENKLLFIKSWNEWAEGNTLEPRFKEDWSLGKVLKKQIIKHDV, MGSDKIHHHHHHMAEEIPVYLFTGFMDSGKTSLIKDTIFENDFANGSKGLIIMCEDGDVEYDMDKLKAANIQVAEIDSEDEFAAAKLNELNMQYLPEQVFIEYNGTWGIDKIIEAELPKGWVIVQSLATVDSTTFDLYMNNMRAMMQEQVFASDVVIFNRTDDDTDRGHLRRTIKNINRKAQIVYERKDGTIDERPEELPFDINQDVIELSDADYAIWYMDAMENYKKYDGKVVKFLALVYNPDKLRKGVMVPGRFAMTCCIEDVTFIGFKCKYEDESSIPHKSWITITARVHVEFAREYKGKGPVLYPVSIEPAEKPQDELVYFS, MGSDKIHHHHHHMAEFPASLLILNGKSTDNLPLREAIMLLREEGMTIHVRVTWEKGDAARYVEEARKFGVATVIAGGGDGTINEVSTALIQCEGDDIPALGILPLGTANDFATSVGIPEALDKALKLAIAGDAIAIDMAQVNKQTCFINMATGGFGTRITTETPEKLKAALGSVSYIIHGLMRMDTLQPDRCEIRGENFHWQGDALVIGIGNGRQAGGGQQLCPNALINDGLLQLRIFTGDEILPALVSTLKSDEDNPNIIEGASSWFDIQAPHDITFNLDGEPLSGQNFHIEILPAALRCRLPPDCPLLR

— the DeepSol protein solubility set
